Binding result, Kd and binding signal data for six molecules are collected here from paper PMC11404569, “ECT2 peptide sequences outside the YTH domain regulate its m6A-RNA binding”.

Data set [1] deals with T1, ECT2-303 (Arabidopsis thaliana, UniProt Q9LJE5 303-667).
T1 sequence: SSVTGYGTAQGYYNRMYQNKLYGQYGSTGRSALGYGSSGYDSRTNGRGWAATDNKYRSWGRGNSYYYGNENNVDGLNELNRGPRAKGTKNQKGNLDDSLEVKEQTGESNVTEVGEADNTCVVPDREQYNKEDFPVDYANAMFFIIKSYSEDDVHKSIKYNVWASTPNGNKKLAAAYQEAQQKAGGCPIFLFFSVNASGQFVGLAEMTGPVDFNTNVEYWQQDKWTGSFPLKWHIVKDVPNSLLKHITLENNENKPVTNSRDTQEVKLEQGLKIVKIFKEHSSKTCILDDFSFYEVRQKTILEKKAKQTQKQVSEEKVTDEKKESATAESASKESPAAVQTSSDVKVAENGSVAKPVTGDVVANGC
Briefly: EMSA; up to 500 nM; EMSA: 10 nM FAM-RNA; binding buffer 10 mM HEPES pH 8.0, 50 mM KCl, 1 mM EDTA, 0.05% Triton X-100, 5% glycerol, 10 µg/mL salmon DNA, 1 mM DTT, 40 U/mL RNasin; 20 min on ice; native 8% acrylamide TBE gel at 4°C. The conditions noted are these: protein: recombinant; tags: N-terminal His-SUMO; label: 5' FAM.

Data set [2] concerns the target T2, ECT2-108 (Arabidopsis thaliana, UniProt Q9LJE5 108-667).
T2 sequence: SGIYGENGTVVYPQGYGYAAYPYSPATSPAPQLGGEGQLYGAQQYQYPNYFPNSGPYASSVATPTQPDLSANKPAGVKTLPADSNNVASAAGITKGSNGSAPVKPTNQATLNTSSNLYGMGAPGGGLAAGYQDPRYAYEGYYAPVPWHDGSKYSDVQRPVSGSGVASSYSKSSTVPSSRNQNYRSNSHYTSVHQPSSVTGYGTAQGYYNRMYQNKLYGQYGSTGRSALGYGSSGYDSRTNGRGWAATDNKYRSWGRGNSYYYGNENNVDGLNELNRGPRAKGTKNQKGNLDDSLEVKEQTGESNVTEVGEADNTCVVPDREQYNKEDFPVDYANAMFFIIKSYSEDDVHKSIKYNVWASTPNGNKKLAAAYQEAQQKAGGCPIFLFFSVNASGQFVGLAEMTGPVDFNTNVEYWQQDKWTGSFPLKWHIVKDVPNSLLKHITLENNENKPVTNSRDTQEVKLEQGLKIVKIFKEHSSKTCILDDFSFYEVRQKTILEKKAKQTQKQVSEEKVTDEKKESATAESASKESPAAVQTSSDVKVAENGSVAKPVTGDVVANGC
Described as above. The conditions noted are these: protein: recombinant; tags: N-terminal His-SUMO; label: 5' FAM.

For the next data set, the target named is T3, ECT2-Fl (untagged) (Arabidopsis thaliana, UniProt Q9LJE5 1-667).
T3 sequence: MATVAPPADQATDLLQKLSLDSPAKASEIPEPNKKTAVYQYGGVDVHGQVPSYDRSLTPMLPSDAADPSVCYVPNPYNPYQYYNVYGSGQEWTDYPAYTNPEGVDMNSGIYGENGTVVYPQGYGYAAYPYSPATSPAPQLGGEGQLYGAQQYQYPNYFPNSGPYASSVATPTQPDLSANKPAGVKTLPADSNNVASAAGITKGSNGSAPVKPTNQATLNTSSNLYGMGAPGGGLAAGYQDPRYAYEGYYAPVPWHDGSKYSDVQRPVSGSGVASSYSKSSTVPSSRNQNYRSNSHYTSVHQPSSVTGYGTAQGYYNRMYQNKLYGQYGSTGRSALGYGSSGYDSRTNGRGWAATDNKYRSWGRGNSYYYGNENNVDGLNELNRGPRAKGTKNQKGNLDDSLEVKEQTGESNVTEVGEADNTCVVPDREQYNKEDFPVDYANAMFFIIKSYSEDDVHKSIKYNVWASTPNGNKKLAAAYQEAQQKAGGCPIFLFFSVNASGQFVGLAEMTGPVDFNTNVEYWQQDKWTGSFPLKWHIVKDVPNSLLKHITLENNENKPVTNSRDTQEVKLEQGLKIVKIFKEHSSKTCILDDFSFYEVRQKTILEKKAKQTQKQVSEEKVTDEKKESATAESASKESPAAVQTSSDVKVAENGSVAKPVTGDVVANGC
The data set is described as above. Conditions: protein: recombinant; tags: none (His-SUMO cleaved by TEV); label: 5' FAM.

The target of data set [3] is T1, ECT2-303. Briefly: EMSA; apparent Kd from free probe; EMSA: 10 nM FAM-RNA; binding buffer 10 mM HEPES pH 8.0, 50 mM KCl, 1 mM EDTA, 0.05% Triton X-100, 5% glycerol, 10 µg/mL salmon DNA, 1 mM DTT, 40 U/mL RNasin; 20 min on ice; native 8% acrylamide TBE gel at 4°C. Conditions: protein: recombinant; tags: N-terminal His-SUMO; label: 5' FAM. (In general: A gel shift assay detects complexes by their altered migration in electrophoresis.)

Data set [4] has as its target T2, ECT2-108. Nature of the data set: EMSA; affinity similar to ECT2-204; EMSA: 10 nM FAM-RNA; binding buffer 10 mM HEPES pH 8.0, 50 mM KCl, 1 mM EDTA, 0.05% Triton X-100, 5% glycerol, 10 µg/mL salmon DNA, 1 mM DTT, 40 U/mL RNasin; 20 min on ice; native 8% acrylamide TBE gel at 4°C. The conditions noted are these: protein: recombinant; tags: N-terminal His-SUMO; label: 5' FAM.

For another data set, the target named is T4, ECT2-204 (Arabidopsis thaliana, UniProt Q9LJE5 204-667).
T4 sequence: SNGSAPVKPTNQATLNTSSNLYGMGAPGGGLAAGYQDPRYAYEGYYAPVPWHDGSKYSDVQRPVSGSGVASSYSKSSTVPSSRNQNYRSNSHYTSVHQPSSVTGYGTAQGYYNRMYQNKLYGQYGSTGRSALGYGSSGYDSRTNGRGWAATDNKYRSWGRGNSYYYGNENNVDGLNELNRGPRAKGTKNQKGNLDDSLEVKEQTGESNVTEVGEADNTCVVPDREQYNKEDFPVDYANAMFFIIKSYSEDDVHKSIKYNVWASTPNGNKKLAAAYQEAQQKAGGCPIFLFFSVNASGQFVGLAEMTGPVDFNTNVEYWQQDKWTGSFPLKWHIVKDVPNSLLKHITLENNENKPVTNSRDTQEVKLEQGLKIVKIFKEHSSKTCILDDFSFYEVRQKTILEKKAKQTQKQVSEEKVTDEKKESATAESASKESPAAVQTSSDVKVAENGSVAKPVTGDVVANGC
Briefly: EMSA; EMSA: 10 nM FAM-RNA; binding buffer 10 mM HEPES pH 8.0, 50 mM KCl, 1 mM EDTA, 0.05% Triton X-100, 5% glycerol, 10 µg/mL salmon DNA, 1 mM DTT, 40 U/mL RNasin; 20 min on ice; native 8% acrylamide TBE gel at 4°C. The conditions noted are these: protein: recombinant; tags: N-terminal His-SUMO; label: 5' FAM.

A further data set addresses T5, ECT2-444 (Arabidopsis thaliana, UniProt Q9LJE5 444-580).
T5 sequence: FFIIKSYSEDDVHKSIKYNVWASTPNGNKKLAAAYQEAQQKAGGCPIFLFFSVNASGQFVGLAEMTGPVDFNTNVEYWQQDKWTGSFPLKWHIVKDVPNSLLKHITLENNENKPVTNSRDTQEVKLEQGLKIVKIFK
Briefly: EMSA; up to 800 nM; EMSA: 10 nM FAM-RNA; binding buffer 10 mM HEPES pH 8.0, 50 mM KCl, 1 mM EDTA, 0.05% Triton X-100, 5% glycerol, 10 µg/mL salmon DNA, 1 mM DTT, 40 U/mL RNasin; 20 min on ice; native 8% acrylamide TBE gel at 4°C. The conditions noted are these: protein: recombinant; tags: N-terminal His-SUMO; label: 5' FAM.

Data set [5] concerns the target YTHDC1 extended YTH (hDC1) (Homo sapiens, UniProt Q96MU7 345-507). Briefly: EMSA; up to 400 nM; EMSA: 10 nM FAM-RNA; binding buffer 10 mM HEPES pH 8.0, 50 mM KCl, 1 mM EDTA, 0.05% Triton X-100, 5% glycerol, 10 µg/mL salmon DNA, 1 mM DTT, 40 U/mL RNasin; 20.
For the next data set, the target named is T6, ECT2-424 (His-SUMO) (Arabidopsis thaliana, UniProt Q9LJE5 424-610).
T6 sequence: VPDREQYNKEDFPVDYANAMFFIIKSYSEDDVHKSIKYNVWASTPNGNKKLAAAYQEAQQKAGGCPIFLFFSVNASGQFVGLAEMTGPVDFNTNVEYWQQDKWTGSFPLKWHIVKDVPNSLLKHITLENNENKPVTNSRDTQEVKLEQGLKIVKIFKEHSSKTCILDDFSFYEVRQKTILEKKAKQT
Nature of the data set: EMSA; no stable complex; EMSA: 10 nM FAM-RNA; binding buffer 10 mM HEPES pH 8.0, 50 mM KCl, 1 mM EDTA, 0.05% Triton X-100, 5% glycerol, 10 µg/mL salmon DNA, 1 mM DTT, 40 U/mL RNasin; 20 min on ice; native 8% acrylamide TBE gel at 4°C. Conditions: protein: recombinant; tags: N-terminal His-SUMO; label: 5' FAM.

For a further data set, the target named is T7, ECT2-376 (Arabidopsis thaliana, UniProt Q9LJE5 376-667).
T7 sequence: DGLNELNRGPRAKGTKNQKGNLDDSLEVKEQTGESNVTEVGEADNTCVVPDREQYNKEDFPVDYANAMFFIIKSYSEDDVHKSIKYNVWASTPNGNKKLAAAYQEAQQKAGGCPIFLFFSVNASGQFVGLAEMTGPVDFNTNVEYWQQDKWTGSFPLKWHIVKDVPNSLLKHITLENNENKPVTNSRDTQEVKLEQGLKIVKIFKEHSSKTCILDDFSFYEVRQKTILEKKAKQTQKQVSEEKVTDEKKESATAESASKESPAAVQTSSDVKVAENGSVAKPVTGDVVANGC
The data set is described as above. Conditions: protein: recombinant; tags: N-terminal His-SUMO; label: 5' FAM.

Consider AUGGGCCGUUCAUCUGCUAAAAGGACUGCUUUUGGGGCUUGU (ssRNA, thiol-protected 3' bases (*G*U)) [Probe I (A)], for which the binding result with ECT2-303 [1], with ECT2-108 [2] and with ECT2-Fl (untagged) was “no binding” in each case.
Regarding AUGGGCCGUUCAUCUGCUAAAAGGACUGCUUUUGGGGCUUGU (ssRNA, m6A at position 25; thiol-protected 3' bases (*G*U)) [Probe I m6A], the Kd with ECT2-303 [3] was determined as 55 ± 7 nM. For the same molecule, the binding signal is ~3 fold Kd vs ECT2-Fl with ECT2-108 [4] and ~5 fold Kd vs ECT2-303 with ECT2-204. Besides, the binding result was “no binding” with ECT2-444 and “binds” in data set [5].
Turning to AUGUGUCUUUCAUGUACUAAAAGGACUGCUCUUGUGUCUUGU (ssRNA, thiol-protected 3' bases (*G*U)) [Probe IV (A)], the binding result in the data set with ECT2-424 (His-SUMO) and in the data set with ECT2-376 was “no binding” each time.
Take AUGUGUCUUUCAUGUACUAAAAGGACUGCUCUUGUGUCUUGU (ssRNA, m6A at position 25; thiol-protected 3' bases (*G*U)) [Probe IV m6A]: the Kd with ECT2-303 [3] is 85 ± 5 nM.
As for AAGGGCCGAACAACAGCAAAAAGGACUGCAAAAGGGGCAAGA (ssRNA, thiol-protected 3' bases (*G*A)) [Probe III (A)], the binding result in the data set with ECT2-303 [1], in the data set with ECT2-424 (His-SUMO) and with ECT2-376 was “no binding” in each case.
For the molecule AAGGGCCGAACAACAGCAAAAAGGACUGCAAAAGGGGCAAGA (ssRNA, m6A at position 25; thiol-protected 3' bases (*G*A)) [Probe III m6A], the Kd in the data set with ECT2-303 [3] amounted to 39 ± 2 nM.
